T1: SGK PY-motif peptide (human)
T1 construct: N-terminal cysteine of the printed peptide; stretch of human SGK (SGK1) with the PY motif PPFY (Y298); also called SGK peptide; source: synthetic peptide (Auspep)
T1 peptide: H-CLYGLPPFYSRNT-NH2

B1: Nedd4 WW3 (isolated WW-domain, GST removed) (domain or fragment, UniProt P46934 840-873, looked up)
chain: GFLPKGWEVRHAPNGRPFFIDHNTKTTTWEDPRL
notes: Nedd4 WW-domain 3 (a Nedd4 with four WW-domains); also called WW-domain 3 of Nedd4; source: E. coli BL21, GST removed with thrombin or TEV protease, purified (glutathione-Sepharose, Superdex-75)
B2: Nedd4-2 WW1 (isolated WW-domain, GST removed) (domain or fragment)
chain: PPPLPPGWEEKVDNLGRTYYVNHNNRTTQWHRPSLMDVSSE
B3: Nedd4-2 WW2-3 (isolated protein, GST removed) (domain or fragment)
chain: TTPGLPSGWEERKDAKGRTYYVNHNNRTTTWTRPIMQLAEDGASGSATNSNNHLIEPQIRRPRSLSSPTVTLSAPLEGAKDSPVRRAVKDTLSNPQSPQPSPYNSPKPQHKVTQSFLPPGWEMRIAPNGRPFFIDHNTKTTTWEDPRLKFPVHM
B4: Nedd4-2 WW2 (isolated WW-domain, GST removed) (domain or fragment)
chain: not shown
B5: RNase (enzyme)
chain: KETAAAKFERQHMDSSTSAASSSNYCNQMMKSRNLTKDRCKPVNTFVHESLADVQAVCSQKNVACKNGQTNCYQSYSTMSITDCRETGSSKYPNCAYKTTQANKHIIVACEGNPYVPVHFDASV

Molecular target: T1, SGK PY-motif peptide
Assay: SPR; BIAcore 2000; peptide immobilised on Sensor Chip CM5 by amine chemistry; isolated WW-domains injected at 20 µl/min in HBS-EP; KD estimated from steady state equilibrium responses
Settings: both partners purified

Kd [µM] | Binder
130 | B1
> 600 | DLGPLPPGWEERIHLDGRTFYIDHNSKITQWEDPRLQNPAIT (domain or fragment) [Nedd4-2 WW4 (isolated WW-domain, GST removed)]
> 600 | B2
53.3 | B3
105 | B4
> 600 | B5
